Experimental data published in article PMC13022674, “Thymine DNA glycosylase binds to R-loops and excises 5-formyl and 5-carboxyl cytosine from DNA/RNA hybrids”.
Changes are numbered by the printed parent chain.

How the values were obtained:
[1] = target: T1, TDG (thymine DNA glycosylase) (human, UniProt Q13569 1-410); test: EMSA; Hill 6.1; EMSA: 5 nM substrate, 100 mM NaCl, 2.5 mM MgCl2, 10 mM Tris-HCl pH 7.5, 5% glycerol, 30 min 30 C, 0.6% agarose 1x TBE 4 C; NMR: 0.1 M NaCl, 0.03 mM TCEP, 15 mM; details: protein: recombinant; tags: His tag (pET28a, TALON purified); label: 5'-FAM strand 1; 5' overhang 1 nt (strand 1)
[2] = target: T1, TDG (thymine DNA glycosylase); test: EMSA; EMSA: 5 nM substrate, 100 mM NaCl, 2.5 mM MgCl2, 10 mM Tris-HCl pH 7.5, 5% glycerol, 30 min 30 C, 0.6% agarose 1x TBE 4 C; NMR: 0.1 M NaCl, 0.03 mM TCEP, 15 mM; details: protein: recombinant; tags: His tag (pET28a, TALON purified); blunt
[3] = target: T1, TDG (thymine DNA glycosylase); test: EMSA; Hill 2.9; EMSA: 5 nM substrate, 100 mM NaCl, 2.5 mM MgCl2, 10 mM Tris-HCl pH 7.5, 5% glycerol, 30 min 30 C, 0.6% agarose 1x TBE 4 C; NMR: 0.1 M NaCl, 0.03 mM TCEP, 15 mM; details: protein: recombinant; tags: His tag (pET28a, TALON purified); label: 5'-FAM strand 1; 5' overhang 1 nt (strand 1)
[4] = target: T1, TDG (thymine DNA glycosylase); test: EMSA; Hill 1.8; EMSA: 5 nM substrate, 100 mM NaCl, 2.5 mM MgCl2, 10 mM Tris-HCl pH 7.5, 5% glycerol, 30 min 30 C, 0.6% agarose 1x TBE 4 C; NMR: 0.1 M NaCl, 0.03 mM TCEP, 15 mM; details: protein: recombinant; tags: His tag (pET28a, TALON purified); label: 5'-FAM strand 1; blunt; G-UF pair intended
[5] = target: T1, TDG (thymine DNA glycosylase); test: EMSA; Hill 2.3; EMSA: 5 nM substrate, 100 mM NaCl, 2.5 mM MgCl2, 10 mM Tris-HCl pH 7.5, 5% glycerol, 30 min 30 C, 0.6% agarose 1x TBE 4 C; NMR: 0.1 M NaCl, 0.03 mM TCEP, 15 mM; details: protein: recombinant; tags: His tag (pET28a, TALON purified); label: 5'-FAM strand 1; blunt
[6] = target: T1, TDG (thymine DNA glycosylase); test: EMSA; Hill 2.7; EMSA: 5 nM substrate, 100 mM NaCl, 2.5 mM MgCl2, 10 mM Tris-HCl pH 7.5, 5% glycerol, 30 min 30 C, 0.6% agarose 1x TBE 4 C; NMR: 0.1 M NaCl, 0.03 mM TCEP, 15 mM; details: protein: recombinant; tags: His tag (pET28a, TALON purified); label: 5'-FAM strand 1; blunt
[7] = target: T1, TDG (thymine DNA glycosylase); test: EMSA; Hill 2.0; EMSA: 5 nM substrate, 100 mM NaCl, 2.5 mM MgCl2, 10 mM Tris-HCl pH 7.5, 5% glycerol, 30 min 30 C, 0.6% agarose 1x TBE 4 C; NMR: 0.1 M NaCl, 0.03 mM TCEP, 15 mM; details: protein: recombinant; tags: His tag (pET28a, TALON purified); label: 5'-FAM strand 1; blunt
[8] = target: T1, TDG (thymine DNA glycosylase); test: EMSA; Hill 3.0; EMSA: 5 nM substrate, 100 mM NaCl, 2.5 mM MgCl2, 10 mM Tris-HCl pH 7.5, 5% glycerol, 30 min 30 C, 0.6% agarose 1x TBE 4 C; NMR: 0.1 M NaCl, 0.03 mM TCEP, 15 mM; details: protein: recombinant; tags: His tag (pET28a, TALON purified); label: 5'-FAM strand 1; blunt
[9] = target: T1, TDG (thymine DNA glycosylase); test: EMSA; Hill 4.5; EMSA: 5 nM substrate, 100 mM NaCl, 2.5 mM MgCl2, 10 mM Tris-HCl pH 7.5, 5% glycerol, 30 min 30 C, 0.6% agarose 1x TBE 4 C; NMR: 0.1 M NaCl, 0.03 mM TCEP, 15 mM; details: protein: recombinant; tags: His tag (pET28a, TALON purified); label: 5'-FAM strand 1; blunt
[10] = target: T1, TDG (thymine DNA glycosylase); test: EMSA; Hill 4.9; EMSA: 5 nM substrate, 100 mM NaCl, 2.5 mM MgCl2, 10 mM Tris-HCl pH 7.5, 5% glycerol, 30 min 30 C, 0.6% agarose 1x TBE 4 C; NMR: 0.1 M NaCl, 0.03 mM TCEP, 15 mM; details: protein: recombinant; tags: His tag (pET28a, TALON purified); label: 5'-FAM strand 1; blunt

T1 sequence (Q13569 whole entry): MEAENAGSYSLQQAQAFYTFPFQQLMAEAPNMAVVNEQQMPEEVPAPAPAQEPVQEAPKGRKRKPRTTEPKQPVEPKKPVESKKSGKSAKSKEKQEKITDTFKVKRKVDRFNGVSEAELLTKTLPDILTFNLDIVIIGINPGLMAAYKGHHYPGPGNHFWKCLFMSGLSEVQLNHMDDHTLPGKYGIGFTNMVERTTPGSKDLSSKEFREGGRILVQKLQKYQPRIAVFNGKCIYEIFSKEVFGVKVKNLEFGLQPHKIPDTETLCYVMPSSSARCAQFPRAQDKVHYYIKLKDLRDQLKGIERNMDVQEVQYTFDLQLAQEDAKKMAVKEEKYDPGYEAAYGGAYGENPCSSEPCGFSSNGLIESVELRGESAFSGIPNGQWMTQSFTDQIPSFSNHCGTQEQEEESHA

B1: H2-C (DNA:RNA)
DNA: TGTGTCACCACTGCTCACGTACAGAGCTG
RNA: CAGCUCUGUACGUGAGCAGUGGUGACAC
modifications: strand 2 RNA
- Kd [1]: 57 nM

B2: TCF21-DNA (unmodified) (dsDNA)
DNA 1: TCCTAGTGTCCACCAAATTCCTCAGCGCTCGCTCACCCTCCTCTACGGCCACGACTCTGGGAGTG
DNA 2: CACTCCCAGAGTCGTGGCCGTAGAGGAGGGTGAGCGAGCGCTGAGGAATTTGGTGGACACTAGGA
- Kd [2]: 49 nM

B3: D2-C (dsDNA)
DNA 1: TGTGTCACCACTGCTCACGTACAGAGCTG
DNA 2: CAGCTCTGTACGTGAGCAGTGGTGACAC
- Kd [3]: 47 nM

B4: D1-UF (dsDNA)
DNA 1: TGAGGATGTATATATCTGAUGCGCCGGTGGAGC
DNA 2: GCTCCACCGGCGCGTACGATATATACATCCTCA
modifications: 2'-deoxy-2'-fluoroarabinouridine (UF) at strand 1 pos 20
- Kd [4]: 32 nM

B5: D1-C (dsDNA)
DNA 1: B4 DNA 1 with U20C
DNA 2: B4 DNA 2
- Kd [5]: 43 nM

B6: H1-5caC (DNA:RNA)
DNA: B4 DNA 1 with U20C
RNA: GCUCCACCGGCGCGUACGAUAUAUACAUCCUCA
modifications: 5-carboxycytosine at strand 1 pos 20; strand 2 RNA
- Kd [6]: 31 nM

B7: D1-5caC (dsDNA)
DNA 1: B4 DNA 1 with U20C
DNA 2: B4 DNA 2
modifications: 5-carboxycytosine at strand 1 pos 20
- Kd [7]: 25 nM

B8: D1-5fC (dsDNA)
DNA 1: B4 DNA 1 with U20C
DNA 2: B4 DNA 2
modifications: 5-formylcytosine at strand 1 pos 20
- Kd [8]: 56 nM

B9: H1-C (DNA:RNA)
DNA: B4 DNA 1 with U20C
RNA: B6 RNA
modifications: strand 2 RNA
- Kd [9]: 67 nM

B10: H1-5fC (DNA:RNA)
DNA: B4 DNA 1 with U20C
RNA: B6 RNA
modifications: 5-formylcytosine at strand 1 pos 20; strand 2 RNA
- Kd [10]: 60 nM
